± gives the standard deviation of the averaged measurements.
Columns and labels:
Saccharomyces cerevisiae [1] = experiment: protein stability index of tFT-peptide fusion (C-terminal peptide) (PSI (0-1 scale)); higher = more stable (slower turnover); conditions: genetic background: wild type; temperature: 30 C
Saccharomyces cerevisiae [2] = experiment: as above
Description: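 MPS profiling in S. cerevisiae of the tFT-X12 degron library: putative degron peptides plus stable controls, 12 aa, fused to the C-terminus of a sfGFP-mCherry timer. Cells are FACS-sorted into 8 mCherry/sfGFP bins and deep-sequenced. PSI runs from 0 (unstable) to 1 (stable). Backgrounds are wild type, das1Δ and doa10Δ at 30 °C, and wild type, das1Δ, cdc34-1 and cdc53-1 at 37 °C; 2-3 technical replicates each.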

[3] = genetic background: cdc34-1, temperature: 37 C
[4] = genetic background: cdc53-1, temperature: 37 C
[5] = genetic background: das1 deletion, temperature: 30 C
[6] = genetic background: das1 deletion, temperature: 37 C
[7] = genetic background: doa10 deletion, temperature: 30 C
[8] = genetic background: wild type, temperature: 30 C
[9] = genetic background: wild type, temperature: 37 C
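Further: PSI is a weighted mean of sequencing reads over stability bins, variants kept only with over 10 reads, mCherry proximal and sfGFP distal, peptide attached via GGGS linker.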

| Sequence | protein stability index (Saccharomyces cerevisiae [1]) | protein stability index (Saccharomyces cerevisiae [2]; [3]) | protein stability index (Saccharomyces cerevisiae [2]; [4]) | protein stability index (Saccharomyces cerevisiae [2]; [5]) | protein stability index (Saccharomyces cerevisiae [2]; [6]) | protein stability index (Saccharomyces cerevisiae [2]; [7]) | protein stability index (Saccharomyces cerevisiae [2]; [8]) | protein stability index (Saccharomyces cerevisiae [2]; [9]) |
| --- | --- | --- | --- | --- | --- | --- | --- | --- |
| ACFLFPSHLLIS | 0.305 ± 0.0099 | 0.584 ± 0.021 | 0.689 ± 0.0086 | 0.541 ± 0.02 | 0.699 ± 0.021 | 0.165 ± 0.023 | 0.181 ± 0.011 | 0.3022 ± 0.0017 |
| AFCGRRGHQFYN | 0.263 ± 0.061 | 0.61 ± 0.0073 | 0.743 ± 0.016 | 0.648 ± 0.018 | 0.746 ± 0.037 | 0.144 ± 0.0093 | 0.164 ± 0.014 | 0.42 ± 0.027 |
| AFRFFWFFFFTS | 0.445 ± 0.03 | 0.536 ± 0.066 | 0.619 ± 0.042 | 0.466 ± 0.024 | 0.603 ± 0.035 | 0.446 ± 0.0062 | 0.426 ± 0.017 | 0.557 ± 0.018 |
| AFSISPFRLRMV | 0.418 ± 0.017 | 0.642 ± 0.026 | 0.753 ± 0.025 | 0.649 ± 0.013 | 0.746 ± 0.03 | 0.249 ± 0.0032 | 0.293 ± 0.022 | 0.541 ± 0.0024 |
| AFWLFSGIARLA | 0.407 ± 0.041 | 0.568 ± 0.011 | 0.66 ± 0.023 | 0.472 ± 0.014 | 0.642 ± 0.024 | 0.221 ± 0.014 | 0.277 ± 0.011 | 0.5014 ± 0.0035 |
| AGESLRAIAVLY | 0.42 ± 0.018 | 0.647 ± 0.06 | 0.715 ± 0.025 | 0.588 ± 0.0077 | 0.6605 ± 0.004 | 0.258 ± 0.016 | 0.292 ± 0.018 | 0.47738 ± 0.00044 |
| AGLTLLWPLCLL | 0.3669 ± 0.0023 | 0.28 ± 0.0058 | 0.261 ± 0.0053 | 0.277 ± 0.022 | 0.394 ± 0.013 | 0.591 ± 0.01 | 0.265 ± 0.034 | 0.353 ± 0.013 |
| AGTLLLGYGILA | 0.43845 ± 0.00034 | 0.454 ± 0.019 | 0.464 ± 0.038 | 0.342 ± 0.023 | 0.5107 ± 0.00054 | 0.309 ± 0.017 | 0.349 ± 0.023 | 0.486 ± 0.0055 |
| AGVRCPLFWLVC | 0.156 ± 0.0027 | 0.461 ± 0.049 | 0.622 ± 0.032 | 0.498 ± 0.033 | 0.632 ± 0.013 | 0.131 ± 0.012 | 0.138 ± 0.0075 | 0.148 ± 0.01 |
| AHPTLILTNKIA | 0.237 ± 0.0044 | 0.578 ± 0.13 | 0.705 ± 0.063 | 0.643 ± 0.025 | 0.712 ± 0.044 | 0.0637 ± 0.025 | 0.104 ± 0.044 | 0.121 ± 0.023 |
| ALLIYFLCRCIP | 0.44 ± 0.034 | 0.4326 ± 0.00094 | 0.476 ± 0.011 | 0.343 ± 0.033 | 0.522 ± 0.016 | 0.301 ± 0.015 | 0.33 ± 0.035 | 0.483 ± 0.032 |
| APLFPPPPARSL | – | 0.652 ± 0.034 | 0.7023 ± 0.0017 | 0.661 ± 0.014 | 0.704 ± 0.011 | 0.692 ± 0.017 | 0.677 ± 0.03 | 0.688 ± 0.041 |
| ARRFLVRRFILF | 0.282 ± 0.0087 | 0.545 ± 0.019 | 0.65822 ± 0.00018 | 0.586 ± 0.0066 | 0.683 ± 0.026 | 0.187 ± 0.018 | 0.189 ± 0.021 | 0.326 ± 0.033 |
| ASHLGLGCLVVC | 0.491 ± 0.0059 | 0.601 ± 0.089 | 0.571 ± 0.045 | 0.426 ± 0.018 | 0.604 ± 0.015 | 0.389 ± 0.028 | 0.408 ± 0.02 | 0.579 ± 0.021 |
| AVRLPFPLLVHL | 0.473 ± 0.028 | 0.205 ± 0.012 | 0.195 ± 0.0033 | 0.283 ± 0.031 | 0.386 ± 0.0046 | 0.427 ± 0.016 | 0.276 ± 0.053 | 0.337 ± 0.029 |
| AVVCSRLVLFCL | 0.512 ± 0.026 | 0.591 ± 0.042 | 0.609 ± 0.021 | 0.53 ± 0.016 | 0.6322 ± 0.0018 | 0.433 ± 0.018 | 0.446 ± 0.025 | 0.588 ± 0.021 |
| AYSVIPSLALLP | – | 0.681 ± 0.062 | 0.741 ± 0.008 | 0.631 ± 0.024 | 0.731 ± 0.0022 | 0.646 ± 0.018 | 0.632 ± 0.01 | 0.706 ± 0.0094 |
| CALLLLSVRAGQ | 0.474 ± 0.019 | 0.5373 ± 0.00093 | 0.57 ± 0.02 | 0.432 ± 0.04 | 0.5912 ± 0.0029 | 0.415 ± 0.032 | 0.433 ± 0.024 | 0.565 ± 0.02 |
| CCSRFLMLRILV | 0.146 ± 0.014 | 0.197 ± 0.062 | 0.208 ± 0.015 | 0.287 ± 0.041 | 0.438 ± 0.026 | 0.118 ± 0.0037 | 0.1 ± 0.0099 | 0.126 ± 0.0093 |

— the supplement of paper PMC10724198
